Test results from patent US8394641B2, “Method of hydrolyzing an enzymatic substrate” (Advanced Liquid Logic Inc., priority 2009, dated 2013).
Where two headings read alike, the source gives them in different places. One block for each molecule: values may come before it.

Tests used:
[1] = molecular target: T1, acid β-D-glucosidase (Homo sapiens, UniProt P04062); assay: Droplet-based enzymatic assay for acid β-D-glucosidase (Gaucher), comparison of substrates; format: biochemical; conditions: droplet actuator, Gaucher's disease testing
T1 sequence (P04062 40-536): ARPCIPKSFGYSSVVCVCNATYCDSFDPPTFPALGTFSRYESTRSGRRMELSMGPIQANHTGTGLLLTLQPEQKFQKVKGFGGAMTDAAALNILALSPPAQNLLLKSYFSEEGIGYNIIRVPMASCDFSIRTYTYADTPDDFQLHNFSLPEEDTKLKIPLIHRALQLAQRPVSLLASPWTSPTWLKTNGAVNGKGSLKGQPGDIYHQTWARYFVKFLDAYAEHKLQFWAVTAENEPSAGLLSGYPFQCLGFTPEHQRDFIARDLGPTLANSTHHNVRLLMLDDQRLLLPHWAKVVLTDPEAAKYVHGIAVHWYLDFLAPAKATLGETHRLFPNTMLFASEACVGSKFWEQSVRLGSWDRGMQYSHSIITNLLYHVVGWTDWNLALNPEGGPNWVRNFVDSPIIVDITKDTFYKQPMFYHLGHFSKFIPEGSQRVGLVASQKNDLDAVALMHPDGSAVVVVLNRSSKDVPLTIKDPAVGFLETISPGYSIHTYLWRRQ
Text: The invention provides assay methods for detection of Gaucher and Niemann-Pick diseases on a droplet actuator. Gaucher's disease and Niemann-Pick's disease are caused by deficient activity of the lysosomal enzymes acid β-D-glucosidase and acid sphingomyelinase, respectively. In one embodiment, the invention provides methods for a droplet-based enzymatic assay for acid β-D-glucosidase activity. For example, a multifluoroethylumbelliferyl-β-D-glucoside, such as a 4-pentafluoroethylumbelliferyl-β-D-glucoside, may be used as a substrate fluid in a droplet-based enzymatic assay for acid β-D-glucosidase enzyme activity. The increased number of fluorines makes the substrate fluid more labile to hydrolysis. The excitation/emission wavelengths for 4-pentafluoroethylumbelliferyl-β-D-glucoside are 385/495 nm.

[2] = molecular target: iduronate-2-sulfate sulphatase (IDS) (Homo sapiens, UniProt P22304); conditions: cited from earlier work
[3] = stock solution; cited from earlier work
[4] = Modified Hunter's assay (IDS) on a droplet actuator, recombinant iduronidase as second enzyme; format: biochemical, human
Procedure: Reagent solutions were prepared on-bench, and the experiment was performed on a droplet actuator using a digital microfluidic protocol. Different dilutions (1/10×, 1/4×, 1/3×, 1/2× and 1×) of plasma samples from normal (n=1) and affected (n=1) subjects were prepared using molecular grade water. A blank sample was prepared using 1 μg/mL of recombinant iduronidase in 0.05 M Na-Acetate/0.05 M Acetic acid buffer pH 5.0. A working stock of 10 μg/mL recombinant iduronidase in 0.05 M Na-Acetate/0.05 M Acetic acid buffer pH 5.0 was prepared from a stock of 0.5 mg/mL iduronidase (supplied in 0.05 M Na-Acetate with 150 mM NaCl, 0.02% Brij-35 (w/v) pH 3.5). A working stock of 1.25 mM MU-αIdoA-S substrate fluid was prepared in 0.1 M Na-Acetate, 0.1M Acetic Acid buffer pH 5.0 containing 10 mM Pb-Acetate. A substrate fluid was prepared by mixing 1 μL of 10 μg/mL recombinant iduronidase and 9 μL of 1.25 mM MU-αIdoA-S.
In one example, the digital microfluidic protocol for testing plasma sample dilutions included the following steps: • 1. […] Detect fluorescence at 364 nm (t=0 h); • 7. […] Detect fluorescence at 364 nm (t=8 h).
Eight different normal plasma samples were analyzed using two concentrations of recombinant iduronidase (i.e., 1 μg/mL and 10 μg/mL) in the modified Hunter's assay. […]

[5] = Recombinant iduronidase standard curve in the presence of BSA on a droplet actuator; format: biochemical; conditions: after stop buffer, room temperature
Procedure: Serial dilutions of recombinant iduronidase were prepared in 0.05 M Na-Acetate/0.05 M Acetic acid buffer, pH 5.0 from a stock of 0.5 mg/mL recombinant iduronidase containing 1 mg/mL molecular biology grade bovine serum albumin (BSA). A substrate fluid was prepared in 0.05 M Na Acetate, pH 5.0 containing 1 mM 4-methylumbelliferyl-α-L-idopyranosiduronic acid (4-MUI) and 100 μM D-saccharic acid 1,4-lactone.
The digital microfluidic protocol for the iduronidase standard curve included the following steps: • 1. Mix one 1× droplet of iduronidase and one 1× droplet of substrate fluid to yield a 2× reaction droplet; • 2. Split the 2× reaction droplet into two 1× reaction droplets; • 3. Dispense 11 droplets of stop buffer (sodium carbonate pH 10.1, 0.01% Tween® 20) and combine them with the first set of 1× reaction droplets; • 4. Detect end point fluorescence at 365 nm (t=0); • 5. Incubate the second set of 1× reaction droplets for 1 h at room temperature; • 6. After 1 h of incubation, dispense 11 droplets of stop buffer and combine with the reaction droplets; and • 7. Detect end point fluorescence at 365 nm (t=1 h).

iduronate-2-sulfate sulphatase (IDS), sequence (P22304 34-550): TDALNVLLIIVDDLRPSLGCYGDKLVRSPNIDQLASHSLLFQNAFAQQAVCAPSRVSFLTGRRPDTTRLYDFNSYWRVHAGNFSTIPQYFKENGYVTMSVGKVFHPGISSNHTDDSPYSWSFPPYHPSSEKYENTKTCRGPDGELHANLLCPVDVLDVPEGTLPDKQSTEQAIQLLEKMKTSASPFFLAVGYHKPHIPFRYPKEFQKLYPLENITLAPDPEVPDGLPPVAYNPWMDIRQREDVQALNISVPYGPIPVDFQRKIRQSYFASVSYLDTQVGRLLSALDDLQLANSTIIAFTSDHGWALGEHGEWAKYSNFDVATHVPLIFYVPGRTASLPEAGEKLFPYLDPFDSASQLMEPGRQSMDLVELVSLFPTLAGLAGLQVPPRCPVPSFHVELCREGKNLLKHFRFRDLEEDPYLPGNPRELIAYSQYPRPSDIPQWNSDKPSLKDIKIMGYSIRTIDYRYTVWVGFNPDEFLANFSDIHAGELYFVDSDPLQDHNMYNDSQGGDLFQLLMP

enzymatic activity compared with the 4-methylumbelliferyl-β-D-glucoside substrate fluid [1]: as much as eight-fold greater
Molecule: O=c1cc(C(F)(F)C(F)(F)F)c2ccc(O[C@@H]3O[C@H](CO)[C@@H](O)[C@H](O)[C@H]3O)cc2o1 [4-pentafluoroethylumbelliferyl-β-D-glucoside]

Molecule: Cl [chloride]
IDS activity inhibited ([2]; 30 mM chloride): 50%
IDS activity inhibited ([2]; 250 mM chloride): completely inhibited

concentration dependence of Hunter's assay activity ([4]; 1 μg/mL vs 10 μg/mL, eight normal plasma samples): higher activity at 10 μg/mL
liberation of 4-MU from 4-methylumbelliferyl-α-L-iduronic acid in the IDS assay ([4]; 1 μg/ml, data not shown): sufficient
Relative fluorescence at t = 1 hrs incubation (Rfu) ([5]; Idu 0.001 μg/mL): 34.6948 Rfu
Relative fluorescence at t = 1 hrs incubation (Rfu) ([5]; Idu 0.01 μg/mL): 179.1927 Rfu
Relative fluorescence at t = 1 hrs incubation (Rfu) ([5]; Idu 0.1 μg/mL): 999.3997 Rfu
Relative fluorescence at t = 1 hrs incubation (Rfu) ([5]; Idu 1 μg/mL): 7427.665 Rfu
B1: recombinant iduronidase: Recombinant α-L-Iduronidase from R&D Systems, second enzyme of the Hunter's assay (protein, UniProt P35475 28-653, looked up)
Alpha-L-iduronidase: APHLVHVDAARALWPLRRFWRSTGFCPPLPHSQADQYVLSWDQQLNLAYVGAVPHRGIKQVRTHWLLELVTTRGSTGRGLSYNFTHLDGYLDLLRENQLLPGFELMGSASGHFTDFEDKQQVFEWKDLVSSLARRYIGRYGLAHVSKWNFETWNEPDHHDFDNVSMTMQGFLNYYDACSEGLRAASPALRLGGPGDSFHTPPRSPLSWGLLRHCHDGTNFFTGEAGVRLDYISLHRKGARSSISILEQEKVVAQQIRQLFPKFADTPIYNDEADPLVGWSLPQPWRADVTYAAMVVKVIAQHQNLLLANTTSAFPYALLSNDNAFLSYHPHPFAQRTLTARFQVNNTRPPHVQLLRKPVLTAMGLLALLDEEQLWAEVSQAGTVLDSNHTVGVLASAHRPQGPADAWRAAVLIYASDDTRAHPNRSVAVTLRLRGVPPGPGLVYVTRYLDNGLCSPDGEWRRLGRPVFPTAEQFRRMRAAEDPVAAAPRPLPAGGRLTLRPALRLPSLLLVHVCARPEKPPGQVTRLRALPLTQGQLVLVWSDEHVGSKCLWTYEIQFSQDGKAYTPVSRKPSTFNLFVFSPDTGAVSGSYRVRALDYWARPGPFSDPVPYLEVPVPRGPPSPGNP
specific activity of stock enzyme [3]: > 7.5 nmol/min/µg
